Test results reported in patent US20180155451A1 (published 2018).

T1: FcγRIIa H (FcγRIIa type H, His at position 131), extracellular domain with C-terminal His tag (human, UniProt P12318 34-217)
T1 construct: extracellular domain; also called 2aH; FcgRIIa H; not shown: His tag at the C terminus
T1 sequence (looked up): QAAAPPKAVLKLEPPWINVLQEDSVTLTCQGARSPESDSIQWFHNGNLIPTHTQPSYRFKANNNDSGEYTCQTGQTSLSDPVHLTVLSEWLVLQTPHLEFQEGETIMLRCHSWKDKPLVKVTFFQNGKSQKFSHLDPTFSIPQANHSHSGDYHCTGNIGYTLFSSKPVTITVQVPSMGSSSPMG

T2: FcγRIIb, extracellular domain with C-terminal His tag (human, UniProt P31994 43-217)
T2 construct: extracellular domain; also called 2b; FcgRIIb; not shown: His tag at the C terminus
T2 sequence (looked up): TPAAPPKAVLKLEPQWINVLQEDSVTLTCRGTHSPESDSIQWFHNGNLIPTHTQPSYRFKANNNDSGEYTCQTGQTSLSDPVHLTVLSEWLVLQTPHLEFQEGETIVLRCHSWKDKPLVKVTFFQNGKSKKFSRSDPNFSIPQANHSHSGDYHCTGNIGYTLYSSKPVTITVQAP

T3: FcγRIIb extracellular domain with C-terminal His tag (human, UniProt P31994 43-217)
T3 construct: extracellular domain; Soluble receptor expressed in FreeStyle293 cells, used as analyte in Biacore; also called FcgRIIb; CD32B; not shown: His tag at the C terminus
T3 sequence (looked up): T2 sequence (looked up)

B1: GpH7-A5/GpH7-B3 variant H268_20W/GpL16-k0 (antibody, human IgG1, kappa)
heavy 1: not shown
heavy 2: not shown
light: DIVMTQSPLSLPVTPGEPASISCQASESLVHSNRNTYLHWYLQKPGQSPQLLIYKVSNRFSGVPDRFSGSGSGTDFTLKISRVEAEDVGVYYCSQNTHVPPTFGQGTKVEIERTVAAPSVFIFPPSDEQLKSGTASVVCLLNNFYPREAKVQWKVDNALQSGNSQESVTEQDSKDSTYSLSSTLTLSKADYEKHKVYACEVTHQGLSSPVTKSFNRGEC
notes: Heterodimerized IgG1 (He Ab); mutation only in the GpH7-B3 chain; also called He Ab H268W
B2: GpH7-A5/GpH7-B3 variant Y296_20W/GpL16-k0 (antibody, human IgG1, kappa)
heavy 1: not shown
heavy 2: not shown
light: B1 light
notes: Heterodimerized IgG1 (He Ab); mutation only in the GpH7-B3 chain; also called He Ab Y296W
B3: GpH7-A5/GpH7-B3 variant K326_03V/GpL16-k0 (antibody, human IgG1, kappa)
heavy 1: not shown
heavy 2: not shown
light: B1 light
notes: Heterodimerized IgG1 (He Ab); mutation only in the GpH7-B3 chain; also called He Ab K326V
B4: GpH7-A5/GpH7-B3 variant P271_09D/GpL16-k0 (antibody, human IgG1, kappa)
heavy 1: not shown
heavy 2: not shown
light: B1 light
notes: Heterodimerized IgG1 (He Ab); mutation only in the GpH7-B3 chain; also called He Ab P271D
B5: GpH7-A5/GpH7-B3 variant H268_05P/GpL16-k0 (antibody, human IgG1, kappa)
heavy 1: not shown
heavy 2: not shown
light: B1 light
notes: Heterodimerized IgG1 (He Ab); mutation only in the GpH7-B3 chain; also called He Ab H268P
B6: GpH7-A5/GpH7-B3 variant K326_04F/GpL16-k0 (antibody, human IgG1, kappa)
heavy 1: not shown
heavy 2: not shown
light: B1 light
notes: Heterodimerized IgG1 (He Ab); mutation only in the GpH7-B3 chain; also called He Ab K326F
B7: GpH7-A5/GpH7-B3 variant K326_08L/GpL16-k0 (antibody, human IgG1, kappa)
heavy 1: not shown
heavy 2: not shown
light: B1 light
notes: Heterodimerized IgG1 (He Ab); mutation only in the GpH7-B3 chain; also called He Ab K326L
B8: GpH7-A5/GpH7-B3 variant K326_05P/GpL16-k0 (antibody, human IgG1, kappa)
heavy 1: not shown
heavy 2: not shown
light: B1 light
notes: Heterodimerized IgG1 (He Ab); mutation only in the GpH7-B3 chain; also called He Ab K326P
B9: GpH7-A5/GpH7-B3 variant Y300_19Q/GpL16-k0 (antibody, human IgG1, kappa)
heavy 1: not shown
heavy 2: not shown
light: B1 light
notes: Heterodimerized IgG1 (He Ab); mutation only in the GpH7-B3 chain; also called He Ab Y300Q
B10: GpH7-A5/GpH7-B3 variant S298_06M/GpL16-k0 (antibody, human IgG1, kappa)
heavy 1: not shown
heavy 2: not shown
light: B1 light
notes: Heterodimerized IgG1 (He Ab); mutation only in the GpH7-B3 chain; also called He Ab S298M
B11: GpH7-A5/GpH7-B3 variant S298_08L/GpL16-k0 (antibody, human IgG1, kappa)
heavy 1: not shown
heavy 2: not shown
light: B1 light
notes: Heterodimerized IgG1 (He Ab); mutation only in the GpH7-B3 chain; also called He Ab S298L
B12: GpH7-A5/GpH7-B3 variant P271_10E/GpL16-k0 (antibody, human IgG1, kappa)
heavy 1: not shown
heavy 2: not shown
light: B1 light
notes: Heterodimerized IgG1 (He Ab); mutation only in the GpH7-B3 chain; also called He Ab P271E
B13: GpH7-A5/GpH7-B3 variant H268_01G/GpL16-k0 (antibody, human IgG1, kappa)
heavy 1: not shown
heavy 2: not shown
light: B1 light
notes: Heterodimerized IgG1 (He Ab); mutation only in the GpH7-B3 chain; also called He Ab H268G
B14: GpH7-A5/GpH7-B3 variant S267_19Q/GpL16-k0 (antibody, human IgG1, kappa)
heavy 1: not shown
heavy 2: not shown
light: B1 light
notes: Heterodimerized IgG1 (He Ab); mutation only in the GpH7-B3 chain; also called He Ab S267Q
B15: GpH7-A5/GpH7-B3 variant P271_08L/GpL16-k0 (antibody, human IgG1, kappa)
heavy 1: not shown
heavy 2: not shown
light: B1 light
notes: Heterodimerized IgG1 (He Ab); mutation only in the GpH7-B3 chain; also called He Ab P271L
B16: GpH7-A5/GpH7-B3 variant Y300_10E/GpL16-k0 (antibody, human IgG1, kappa)
heavy 1: not shown
heavy 2: not shown
light: B1 light
notes: Heterodimerized IgG1 (He Ab); mutation only in the GpH7-B3 chain; also called He Ab Y300E
B17: GpH7-A5/GpH7-B3 variant H268_03V/GpL16-k0 (antibody, human IgG1, kappa)
heavy 1: not shown
heavy 2: not shown
light: B1 light
notes: Heterodimerized IgG1 (He Ab); mutation only in the GpH7-B3 chain; also called He Ab H268V
B18: GpH7-A5/GpH7-B3 variant P271_06M/GpL16-k0 (antibody, human IgG1, kappa)
heavy 1: not shown
heavy 2: not shown
light: B1 light
notes: Heterodimerized anti-glypican-3 IgG1; substitution in only one H chain; also called P271M; He Ab

The binders below were run against T1, FcγRIIa H (FcγRIIa type H, His at …) (assay: SPR (Biacore), antibody captured on antigen-peptide chip, FcγR as analyte; GpH7-A5/GpH7-B3/GpL16-k0 = 100).
Method: (§1) The heterodimerized antibodies He Abs in which one of the H chains was introduced with an alteration were assayed for their binding activities to each activating FcγR and inhibitory FcγR according to the method described in Example 4. […] The activating FcγRs in FIGS. 26, 27, 28, and 29 are FcγRIa, FcγRIIa (R), FcγRIIa (H), and FcγRIIIa, respectively.
(§2) Analysis of interaction between objective antibody and the FcγR was carried out using Biacore T100 (GE Healthcare). HBS-EP+ (GE Healthcare) was used as the running buffer, and the measurement temperature was set to 25° C. Chips produced by immobilizing the antigen peptide by the amine coupling method to a Series S Sencor Chip CM5 (GE Healthcare), or alternatively, chips produced by allowing preliminarily biotinylated antigen peptides to interact with and immobilize onto a Series S Sensor Chip SA (certified) (GE Healthcare) were used. Antibodies of interest were captured onto an antigen peptide-immobilized chip, and allowed to interact to each FcγR diluted with running buffer. To regenerate and repeatedly use the chip, the antibodies captured on the chip were washed off by reacting 10 mM glycine-HCl, pH 1.5.

| He/Con_2aH (relative binding activity) | Binder |
| --- | --- |
| 95.8 % of control | B1 |
| 97.6 % of control | B2 |
| 97 % of control | B3 |
| 70.1 % of control | B4 |
| 81.8 % of control | B5 |
| 97 % of control | B6 |
| 92.7 % of control | B7 |
| 98.8 % of control | B8 |
| 96.1 % of control | B9 |
| 98.1 % of control | B10 |
| 85 % of control | B11 |
| 63.1 % of control | B12 |
| 99.2 % of control | B13 |
| 61.3 % of control | B14 |
| 86.7 % of control | B15 |
| 97.2 % of control | B16 |
| 99.2 % of control | B17 |

Each binder was assayed against T2, FcγRIIb, extracellular domain with … in the same assay as above.
Method: as §1, §2

| He/Con_2b (relative binding activity) | Binder |
| --- | --- |
| 111 % of control | B1 |
| 103 % of control | B2 |
| 175 % of control | B3 |
| 120 % of control | B4 |
| 116 % of control | B5 |
| 155 % of control | B6 |
| 177 % of control | B7 |
| 126 % of control | B8 |
| 108 % of control | B9 |
| 102 % of control | B10 |
| 108 % of control | B11 |
| 109 % of control | B12 |
| 144 % of control | B13 |
| 218 % of control | B14 |
| 103 % of control | B15 |
| 134 % of control | B16 |
| 114 % of control | B17 |

These binders were tested against T4, FcγRIa extracellular domain with C-terminal His tag (human, UniProt P12314 16-292) (assay: SPR (Biacore), antibody captured via antigen peptide, FcγR as analyte; binding relative to GpH7-A5/GpH7-B3/GpL16-k0 = 100).
T4 construct: extracellular domain; Soluble receptor expressed in FreeStyle293 cells, used as analyte in Biacore; also called FcgRI; CD64; not shown: His tag at the C terminus
T4 sequence (P12314 16-292): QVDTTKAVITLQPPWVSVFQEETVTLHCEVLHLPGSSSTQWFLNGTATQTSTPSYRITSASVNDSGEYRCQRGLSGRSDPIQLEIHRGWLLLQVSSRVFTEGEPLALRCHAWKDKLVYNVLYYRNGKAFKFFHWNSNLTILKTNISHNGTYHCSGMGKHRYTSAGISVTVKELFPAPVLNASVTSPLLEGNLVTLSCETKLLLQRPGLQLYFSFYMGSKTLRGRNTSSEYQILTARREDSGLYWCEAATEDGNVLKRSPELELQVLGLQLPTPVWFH

| He/Con_1a | Binder |
| --- | --- |
| 102 % of control (GpH7-A5/GpH7-B3/GpL16-k0 = 100) | B18 |

The binders below were run against T3, FcγRIIb extracellular domain with … in the same assay as above.

| He/Con_2b | Binder |
| --- | --- |
| 77.5 % of control (GpH7-A5/GpH7-B3/GpL16-k0 = 100) | B18 |
